Test [1] deals with hRSV FTM-NN (membrane anchorless form of the Long fusion protein, 70 kDa) (human respiratory syncytial virus, strain Long) (UniProt P12568). The test can be described thus: SPR (Biacore), FTM-NN amine-coupled on CM5 chip, 1:1 Langmuir fit. (In general: SPR reads the build-up and loss of mass on a sensor chip optically.)
Test [2] deals with protein F of hRSV strain B-1 (on RSV B-1-infected Hep2 cells and on virus) (human respiratory syncytial virus, strain B-1) (UniProt P13843). The test can be described thus: cell-based or functional assay.
In test [3] the target is protein F of hRSV strain Long, on virus (inactivated hRSV Long, Hytest #8RSV79; RSV Long LM-2, ATCC VR-26) (human respiratory syncytial virus, strain Long) (UniProt P12568). In words: cell-based or functional assay.

As a reminder, the Kd is a measure of binding affinity in units of concentration. Higher therefore signals weaker binding. One may read the koff as the rate constant with which the complex falls apart. A higher koff goes with a short-lived complex. Usually kon stands for the second-order rate constant of association. A low value points to slower complex formation. In test [1], “Synagis® Mab (Palivizumab, humanized monoclonal antibody)” showed a Kd of 0.64 nM, a koff of 0.00018 s⁻¹ and a kon of 280000 M⁻¹ s⁻¹. This substance displayed a Neutralization B-1 IC50 in test [2] of 3.9 nM. In test [3], this substance gave a Neutralization Long IC50 of 5.96 nM.

As to “101F Fab (WO 06/050280, humanized monoclonal antibody, in-house produced)”, the Neutralization B-1 IC50 in test [2] is 180 nM.

(Values after patent US20120301469A1.)
